Broadly, the IC50 is the concentration needed to halve the response being measured.

These results are taken from US20200206358A1, “LONG-CIRCULATING THERANOSTIC AGENTS FOR DIAGNOSING AND IMAGING METASTATIC TUMORS” (The Board of Trustees of the Leland Stanford Junior …, priority 2018, published 2020).

One series concerns 143B cells. Nature of the series: inhibition of [^64Cu]DOTA-EB-TMTP1 binding to 143B cells by TMTP1. The conditions noted are these: TMTP1 competing with [^64Cu]DOTA-EB-TMTP1 on 143B cells; unit inferred.
The test system of series [1] is highly metastatic tumor cells. The conditions noted are these: literature, PLOS One (2012) 7(9): e42685; cited from earlier work.
Series [2] is described as follows: cell uptake of [^64Cu]DOTA-EB-TMTP1. The series is classed as cell-based. Conditions: n=4, mean±SD; uptake ratio increased with time.
Series [3] can be described thus: microPET/CT imaging, time activity curves in 143B tumor bearing nude mice. The series is classed as in vivo. Conditions: mouse, in vivo, iv; 8 h after i.v. injection, 143B tumor bearing nude mice; read-out: tumor uptake (plateau, PET time activity curve). On the procedure:
(§1) The tumor uptake of [^64Cu]DOTA-EB-TMTP1 was increased as time goes by, and reached the plateau of 6.5±0.8% ID/g at 8 h after injection.

A further series concerns 143B tumor. The description is as above. The class given is in vivo. Here is the method: as §1
The nature of the next series: in vivo. On the set-up: species or system nude mice. Conditions: nude, mouse, iv. The source says:
Tumor uptake was 6.7[…]% ID/g.

Non-standard residues stand in square brackets, D forms with d. Residues, ends and D or L forms follow the SMILES beside them. ξ: configuration not given here. *: point of attachment. X1 = Cc1cc(-c2ccc(N*)c(C)c2)ccc1N=Nc1ccc2c(S(=O)(=O)O)cc(S(=O)(=O)O)c(N)c2c1O; DOTA = O=C(O)CN1CCN(CC(=O)O)CCN(CC(=O)*)CCN(CC(=O)O)CC1; ξE = NC(CCC(=O)O)C(=O)O

In the series with 143B cells, NVVRQ [TMTP1] showed a concentration for half-maximal inhibition (IC50) of 0.211 µM. The “affinity for a series of highly metastatic tumor cells” value in series [1] was “high affinity”.
As to `Cc1cc(-c2ccc(NC(=O)CCC(NC(=O)CN3CCN(CC(=O)O)CCN(CC(=O)O)CCN(CC(=O)O)CC3)C(=O)NCC(=O)N[C@@H](CC(N)=O)C(=O)N[C@H](C(=O)N[C@H](C(=O)N[C@@H](CCCNC(=N)N)C(=O)N[C@@H](CCC(N)=O)C(=O)O)C(C)C)C(C)C)c(C)c2)ccc1N=Nc1ccc2c(S(=O)(=O)O)cc(S(=O)(=O)O)c(N)c2c1O` (some centres unmarked) [[^64Cu]DOTA-EB-TMTP1, metal not drawn] ({DOTA}-[ξE](X1)GNVVRQ-OH), the “time at which cell uptake ratio reached the peak” value in series [2] worked out at 45 min. In addition, the tissue uptake at 8 h in series [3] was 6.5 ± 0.8 %ID/g. Further, the “tumor uptake (plateau, PET time activity curve)” value in the series with 143B tumor (8 h after i.v. injection, 143B tumor bearing nude mice) is recorded as 6.5%±0.8 % ID/g. Moreover, in the series on 143B tumor (mouse, in vivo), the “circulation time in the body” value is “long circulation time” and the pharmacokinetic properties result is recorded as “favorable pharmacokinetic properties”. Also, in “in vivo”, the tissue uptake at 48 h worked out at 6.7 %ID/g.
